Measured values as given in patent publication US5763209, “Methods and materials relating to the functional domains of DNA binding proteins” (Arch Development Corporation).

Tests used:
[1] = biological target: Egr-1 Δ284-330 (Mus musculus, UniProt P08046 SEQ:1-533, del284-330); assay: cell_activity; HeLa, enhanced activation
Description: A series of deletion derivatives, each retaining the zinc finger domain, was assayed for transcriptional activity by transient transfection in HeLa and NIH3T3 cells (see FIG. 9). NIH3T3 and HeLa cells were maintained in Dulbecco's modified Eagle's medium (DMEM) with 10% calf serum. Cells were seeded at 8 ×10^5 cells per 100 mm plate the day before transfection. The media was replaced 2 to 6 hours prior to transfection by calcium phosphate-mediated precipitation. Each precipitate included 1 μg of the internal reference pON260, a CMV driven β-galactosidase plasmid (67), or 3 μg of PCH110, a SV40 driven β-galactosidase plasmid (Pharmacia), and remained on the cells for 16–20 hours. Forty-eight hours after transfection, cell extracts were prepared by freeze thaw lysis in 0.25M Tris-HCl 7.8 with protease inhibitors (1mM PMSF, 1 μg/ml Pepstatin A, and […] Leupeptin).
Deletion analyses were performed as described in Example 10, above. […] The enhanced activation seen with deletion A284–330 is consistent with the loss of a region important for repression or negative regulation.

[2] = biological target: Egr-1 (full length) (Mus musculus, UniProt P08046 SEQ:1-533); assay: cell_activity; activation in NIH3T3; dependent on Egr-1 sites
Sequence of Egr-1 (full length) (P08046 whole entry): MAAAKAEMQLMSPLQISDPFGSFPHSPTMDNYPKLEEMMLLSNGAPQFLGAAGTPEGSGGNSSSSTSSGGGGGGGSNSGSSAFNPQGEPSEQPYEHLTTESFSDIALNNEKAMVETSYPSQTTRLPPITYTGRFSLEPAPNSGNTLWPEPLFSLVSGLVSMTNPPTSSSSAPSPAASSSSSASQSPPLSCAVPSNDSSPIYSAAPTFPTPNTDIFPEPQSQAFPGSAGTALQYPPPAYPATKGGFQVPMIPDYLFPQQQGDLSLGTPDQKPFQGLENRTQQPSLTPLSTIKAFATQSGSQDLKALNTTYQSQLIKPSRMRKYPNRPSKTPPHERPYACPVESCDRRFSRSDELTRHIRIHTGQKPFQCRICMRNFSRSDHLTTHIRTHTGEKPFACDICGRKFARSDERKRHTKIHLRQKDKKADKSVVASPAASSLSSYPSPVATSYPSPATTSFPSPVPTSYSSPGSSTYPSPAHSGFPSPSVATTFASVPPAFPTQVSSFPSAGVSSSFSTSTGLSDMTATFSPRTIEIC

Sequence of Egr-1 Δ284-330 (P08046 other isoform, or with tags, fused parts or gaps del284-330 | mutant): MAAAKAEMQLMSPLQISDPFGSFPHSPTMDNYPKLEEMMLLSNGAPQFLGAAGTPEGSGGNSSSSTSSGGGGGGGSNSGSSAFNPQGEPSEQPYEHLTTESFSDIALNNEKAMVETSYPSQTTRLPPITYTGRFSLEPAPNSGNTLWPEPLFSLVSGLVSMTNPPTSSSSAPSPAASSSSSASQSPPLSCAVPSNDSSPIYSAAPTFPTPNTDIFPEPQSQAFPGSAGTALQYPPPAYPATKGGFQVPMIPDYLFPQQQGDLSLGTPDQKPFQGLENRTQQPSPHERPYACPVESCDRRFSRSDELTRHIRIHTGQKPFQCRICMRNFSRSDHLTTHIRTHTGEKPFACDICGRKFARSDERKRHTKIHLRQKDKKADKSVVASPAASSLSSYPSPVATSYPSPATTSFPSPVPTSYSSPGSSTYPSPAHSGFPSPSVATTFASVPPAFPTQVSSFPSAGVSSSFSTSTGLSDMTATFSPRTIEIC

B1: EBS1^3 foscat (3 Egr-1 sites in front of minimal c-fos promoter) (dsDNA)
DNA 1: CGCCCCCGC
DNA 2: GCGGGGGCG
- activity [1]: ~5 fold of wild type
- activity [2]: 10 fold
